Target: IgG-type of BCR (membrane-bound IgG) on Nu-DUL-1 cells
Assay: cell-based or functional assay

With “Immunoglobulin G-degrading enzyme of S. pyogenes (IdeS)” the loss of anti-Fab signal on Nu-DUL-1 cells (flow cytometry) after IdeS treatment was greater than 4 µg/mL and the membrane bound IgG on Nu-DUL-1 cells one hour after IdeS treatment and wash (flow cytometry, anti-Fab) was greater than 4 µg/mL.
